Molecular target: single chain C1q fusion polypeptide according to formula I (TAG-X1-C1qA-X2-C1qB-X3-C1qC-X4) (human)
Assay: C1q affinity chromatography, immobilised fusion polypeptide, linear NaCl gradient in 20 mM HEPES pH 7.4

Chain of single chain C1q fusion polypeptide according to formula I (TAG-X1-C1qA-X2-C1qB-X3-C1qC-X4) (human) (main, as listed by the source): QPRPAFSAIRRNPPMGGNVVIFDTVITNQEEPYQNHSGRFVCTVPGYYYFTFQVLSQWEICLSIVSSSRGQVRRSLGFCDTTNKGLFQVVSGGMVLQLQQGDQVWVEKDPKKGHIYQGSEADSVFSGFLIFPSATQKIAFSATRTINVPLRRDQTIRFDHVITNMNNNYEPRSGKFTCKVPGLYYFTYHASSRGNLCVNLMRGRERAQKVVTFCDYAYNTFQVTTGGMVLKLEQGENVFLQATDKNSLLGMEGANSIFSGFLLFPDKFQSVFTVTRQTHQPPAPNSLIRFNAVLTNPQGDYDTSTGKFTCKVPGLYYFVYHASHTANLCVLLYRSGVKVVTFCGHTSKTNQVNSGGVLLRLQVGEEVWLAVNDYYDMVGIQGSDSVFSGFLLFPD

retention time [min] | Substance
30.7 | Briakinumab (antibody)
39.1 | Ustekinumab (antibody)
